The source of these data is patent publication US20250108096A1, “ALCOHOL CLEANSING METHODS” (Aperiam Bio, Inc., priority 2023, published 2025).

Holding throughout (type): in vivo
Assay [1] deals with ethanol levels in circulation. Nature of the assay: Circulating ethanol levels after acute ethanol intoxication, ADH delivered to mouse lung (Example 1). The note with it: mice. The method, then:
Enzyme and Enzyme Solution: Alcohol dehydrogenase (ADH) from Saccharomyces cerevisiae lyophilized powder), ≥300 units/mg protein, was utilized (Sigma-Aldrich; A7011). NAD^+ utilized was obtained commercially (Sigma-Aldrich; SKU 10127965001). Enzyme solution was prepared by diluting 100 mg of ADH in 2 mL of phosphate buffered saline (PBS) on the day the study protocol began. The Enzyme plus NAD^+ solution was prepared by diluting 100 mg of ADH and 100 mg of NAD^+ in 2 mL of PBS.
Ethanol Solution: Non-denatured ethanol was diluted to a 20% weight/volume solution with PBS (4.3M ethanol solution).
Blood Draw Dilution: Blood was drawn from mice at time points zero, 30 minutes, 1 hour and/or 4 hours after ethanol gavage (FIG. 2) and diluted 100× in buffer. The blood was processed for plasma, 50 μl of blood from the tail vein at each time point was collected using 125 μl heparinized capillary tube (Fisher Sci Cat #14-915-64). Using a pipette the heparinized blood was forced out by air of the capillary tube and into a 0.6 ml mct. The tubes were kept on ice and subsequently spun down to recover the plasma. Plasma was removed and placed into a new tube and kept on ice until needed for the same day assay. […]
Ethanol Detection: Ethanol was detected using the Sigma-Aldrich Ethanol Assay Kit (MAK076) according to the manufacturer's protocol for colorimetric detection. […]

For assay [2], the system named is ethanol levels in circulation. Nature of the assay: Alcohol clearance in mice by pulmonary delivery of ADH, Abcam Ethanol Detection kit (Example 2). Conditions: protocol of Example 1, FIG. 5. The method, then: However, the Abcam Ethanol Detection kit was utilized for ethanol detection and the experimental group delivered ADH and NAD^+ were administered 1 mg ADH, 0.15 mmole NAD^+ (as opposed to 2 mg ADH, 0.15 mmole NAD^+ utilized in Example 1).

Assay [3] has as its system ethanol levels in circulation. Description: Blood ethanol in mice after intratracheal commercial ADH and ALDH (Example 5). The note with it: 4 g/kg ethanol oral gavage, intratracheal 60 minutes later: 2 mg or 600 U ADH, 10 mg or 20 U ALDH, each with 0.15 mmol NAD+, 2 mice per group, FIG. 6. How it is done:
Enzyme and Enzyme Solution: Alcohol dehydrogenase (ADH) from Saccharomyces cerevisiae lyophilized powder), ≥300 units/mg protein, was utilized (Sigma-Aldrich; A7011). NAD utilized was obtained commercially (Sigma-Aldrich; SKU 10127965001). The Enzyme plus NAD solution was prepared by diluting 100 mg of ADH and 100 mg of NAD in 2 mL of PBS. ADH plus NAD^+ solution was prepared by diluting 100 mg of ADH plus 100 mg NAD^+ in 2 mL of phosphate buffered saline (PBS) on the day the study protocol began.
Aldehyde dehydrogenase (ALDH) (lyophilized powder), ≥2.0 units/mg protein potassium-activated, 50 mg total (Cymit; CAS: 9028-88-0) was utilized. ALDH plus NAD^+ solution was prepared by diluting 50 mg ALDH and 100 mg NAD^+ in 0.500 mL of PBS on the day the study protocol began. Any unused ALDH plus NAD^+ solution was stored in a −80° C.
(§1) Ethanol Solution: Non-denatured ethanol was diluted to a 70% volume/volume solution.
(§2) Ethanol Detection: Ethanol was detected using the Sigma-Aldrich Ethanol Assay Kit (MAK076) according to the manufacturer's protocol for colorimetric detection. Several dilutions for a 5 μL blood draw were tested to ensure the sample was within the linear range of the standard curve. Working in a lab space exposed to ethanol vapors was avoided. […]

The test system of assay [4] is ethanol levels in circulation. Nature of the assay: Blood ethanol in mice after intratracheal yeast ADH and human ALDH2 variant (Example 6). The note with it: 2 g/kg ethanol oral gavage, intratracheal 60 minutes later: 2 mg or 600 U ADH, 0.15 mmol NAD+, with or without 1.2 mg variant ALDH, 2 mice per group, FIG. 7. How it is done:
Enzyme and Enzyme Solution: Alcohol dehydrogenase (ADH) from Saccharomyces cerevisiae lyophilized powder), ≥300 units/mg protein, was utilized (Sigma-Aldrich; A7011). NAD^+ utilized was obtained commercially (Sigma-Aldrich; SKU 10127965001). The Enzyme plus NAD^+ solution was prepared by diluting 100 mg of ADH and 100 mg of NAD^+ in 2 mL of PBS. ADH plus NAD^+ solution was prepared by diluting 200 mg of ADH plus 200 mg NAD^+ in 2 mL of phosphate buffered saline (PBS) on the day the study protocol began. A variant of human ALDH was utilized.
as §1
Ethanol Detection: Ethanol was detected using the Abcam Ethanol Assay Kit (ab65343) according to the manufacturer's protocol for colorimetric detection. Several dilutions for a 5 μL blood draw were tested to ensure the sample was within the linear range of the standard curve. Working in a lab space exposed to ethanol vapors was avoided.
To evaluate the combined effect of ADH and a variant ALDH enzyme delivery to the lungs of mice on ethanol levels in circulation after acute ethanol intoxication, ethanol control and experimental group mice were administered 2 g/kg ethanol by oral gavage (90 μL of 70% ethanol solution for a 25 g mouse) at time one. […]

Assay [5] deals with ethanol levels in circulation. Description: Blood ethanol in mice after intratracheal ADH, variant ALDH and variant NOX (Example 7). The note with it: 2 g/kg ethanol oral gavage, intratracheal 60 minutes later: 300 μg ADH, 2.52 mg variant ALDH, 250 μg variant NOX, no NAD+, 2 mice per group, FIG. 8. How it is done:
Enzyme and Enzyme Solution: Alcohol dehydrogenase (ADH) from Saccharomyces cerevisiae lyophilized powder), ≥300 units/mg protein, was utilized (Sigma-Aldrich; A7011). ADH solution was prepared by diluting 200 mg of ADH in 2 mL of phosphate buffered saline (PBS) on the day the study protocol began. A variant of human ALDH (hALDH2) and a variant of the Lactobacillus brevis NOX enzyme were utilized. The variant hALDH2 and variant NOX enzymes were generated in Escherichia coli and each comprise an N-terminal HIS-tag to facilitate purification. A variant hALDH2 solution was prepared at a concentration of 60 mg/mL and a variant NOX solution was prepared at 50 mg/mL.
as §1, §2

B1: Alcohol dehydrogenase (ADH) from Saccharomyces cerevisiae (protein, UniProt P00330 2-348, looked up)
Alcohol dehydrogenase 1: SIPETQKGVIFYESHGKLEYKDIPVPKPKANELLINVKYSGVCHTDLHAWHGDWPLPVKLPLVGGHEGAGVVVGMGENVKGWKIGDYAGIKWLNGSCMACEYCELGNESNCPHADLSGYTHDGSFQQYATADAVQAAHIPQGTDLAQVAPILCAGITVYKALKSANLMAGHWVAISGAAGGLGSLAVQYAKAMGYRVLGIDGGEGKEELFRSIGGEVFIDFTKEKDIVGAVLKATDGGAHGVINVSVSEAAIEASTRYVRANGTTVLVGMPAGAKCCSDVFNQVVKSISIVGSYVGNRADTREALDFFARGLVKSPIKVVGLSTLPEIYEKMEKGQIVGRYVVDTSK
notes: Commercial yeast alcohol dehydrogenase, lyophilized powder, ≥300 units/mg protein (Sigma-Aldrich; A7011)
As for B1, the “blood alcohol levels relative to animals that were not administered ADH” value in assay [1] (ethanol 2 g/kg oral gavage, ADH intratracheally 15 minutes after gavage, blood at 30 minutes, 1 hour, 4 hours, FIG. 3) is recorded as “reduced”; in assay [2], “reduced”. Moreover, the “circulating ethanol levels relative to control” value in assay [1] (ethanol by oral gavage, intratracheal administration of ADH, FIG. 1) is recorded as “reduced”. Besides, the “effect on removing alcohol (blood ethanol level)” value in assay [3] is listed as “stronger effect on removing alcohol compared to ALDH alone”. Further, the “amount of alcohol in the blood” value in assay [4] and in assay [5] was “lowered the amount of alcohol in the blood” throughout.
